The values that follow come from patent US20260274985A1 (MYTHIC THERAPEUTICS, published 2026).

Assay [1] deals with T1, Human TROP2 Protein, His Tag (human, UniProt P09758 27-274).
T1 construct: Bought protein; also called TACSTD2; not shown: His tag
T1 sequence (looked up): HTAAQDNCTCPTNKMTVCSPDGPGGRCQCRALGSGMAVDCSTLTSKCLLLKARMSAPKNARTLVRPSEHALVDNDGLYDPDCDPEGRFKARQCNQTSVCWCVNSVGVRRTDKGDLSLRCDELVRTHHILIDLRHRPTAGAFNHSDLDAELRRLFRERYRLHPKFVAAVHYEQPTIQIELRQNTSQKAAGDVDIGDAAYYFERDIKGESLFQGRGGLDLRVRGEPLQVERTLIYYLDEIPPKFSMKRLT
The experiment in a line: BLI (Octet) [2/2]. The protocol:
After allowing for four days of protein expression, cell culture supernatants were collected, quantified by SDS-PAGE analysis (DNS), and the pH dependence of the variant was evaluated using biolayer interferometry (BLI) on an Octet RED 96e instrument. Briefly, cell culture supernatants were diluted based on qualitative expression level of the variant determined by visual examination of SDS-PAGE gels, 5 μL of cell culture supernatant was diluted into 195 μL of 1×PBST, pH 7.4 for high expressors, 25 μL of cell culture supernatant was diluted into 175 μL of 1×PBST, pH 7.4 for medium expressors and 100 μL of cell culture supernatant was diluted into 100 μL of 1×PBST, pH 7.4 for low expressors for loading onto the sensor tips. The resulting diluted supernatants were then captured on an anti-human Fc sensor (Forte Bio). A baseline was established using 1×PBST (50 mM Potassium Phosphate Buffer+150 mM NaCl+0.05% Tween 20) pH 7.4, and the sensor was associated with 50 nM of TROP2 (Human TROP2 Protein, His Tag, Acro Biosystems) in 1×PBST pH 7.4 for 120 sec to generate an association curve. In the dissociation phase, the antibody-antigen complex on the sensor was exposed to 1×PBST pH 7.4 or pH 5.4, for 300 sec. Association and dissociation phase curves were examined for the starting ABPC antibody (with no substitutions) and each corresponding antibody variant at pH 5.4 and pH 7.4 to inform on two criteria: a) enhanced dissociation (i.e., higher koff values) at pH 5.4 due to histidine or alanine substitution compared to the starting ABPC, (with no substitutions), and b) reduced dissociation at pH 7.4 (i.e., lower koff values) compared to pH 5.4 in the antibody variant itself and with the starting ABPC (with no substitutions). […] It was also noted that while some mutations obliterated TROP2 binding, others were tolerated with little or n change in TROP2 binding kinetics.

Assay [2] deals with T2, Human TROP2 Protein, His Tag (Acro Biosystems) (human, UniProt P09758 27-274).
T2 construct: not shown: His tag
T2 sequence (looked up): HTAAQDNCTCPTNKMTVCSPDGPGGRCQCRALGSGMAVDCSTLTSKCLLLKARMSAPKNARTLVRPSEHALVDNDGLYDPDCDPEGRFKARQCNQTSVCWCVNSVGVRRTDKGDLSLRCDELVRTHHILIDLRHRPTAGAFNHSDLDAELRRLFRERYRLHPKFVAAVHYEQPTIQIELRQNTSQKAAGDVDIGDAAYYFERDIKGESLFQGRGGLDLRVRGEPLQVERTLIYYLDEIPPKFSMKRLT
Briefly: BLI (Octet). (In general: BLI is a label-free optical method that tracks binding on a fibre tip over time.)

B1: MYT11677 (antibody, V domains shown)
VH: QVQLVQSGAEVKKPGASVKVSCKASGYTFTTAGMQWVRQAPGQGLEWMGWINTHSGVPKYAEDFKGRVTISADTSTSTAYLQLSSLKSEDTAVYYCARSGFGSSYWYFDVWGQGTLVTVSS
VL: DIQMTQSPSSLSASVGDRVTITCHASQDVSTAVAWYQQKPGKAPKLLIYSASYRYTGVPSRFSGSGSGTDFTLTISSLQPEDFAVYYCQQHYITPLTFGQGTKLEIK
notes: IgG from supernatant; His at LCV position 24; also called datopotamab variant L1 01
Take B1: the binding result in assay [1] is “binds”.

B2: MYT11692 (antibody, V domains shown)
VH: QVQLVQSGAEVKKPGASVKVSCKASGYTFTTAGMQWVRQAPGQGLEWMGWINTHSGVPKYAEDFKGRVTISADTSTSTAYLQLSSLKSEDTAVYYCARSGFGSSYWYFDVWGQGTLVTVSS
VL: DIQMTQSPSSLSASVGDRVTITCKASQDVSTAVAWYQQKPGKAPKLLIYSASYHYTGVPSRFSGSGSGTDFTLTISSLQPEDFAVYYCQQHYITPLTFGQGTKLEIK
notes: IgG from supernatant; His at LCV position 54; also called datopotamab variant L2 05
On to B2, for which the binding result in assay [1] was “binds”.

B3: MYT12367 (antibody, V domains shown)
VH: QVQLQQSGSELKKPGASVKVSCKASGYTFTNYGMNWVKQAPGQGLKWMGWINTYTGEPTYTDDFKGRFAFSLDTSVSTAYLQISSLKADDTAVYFCARGGFGSSYWYFDVWGQGSLVTVSS
VL: DIQLTQSPSSLSASVGDRVSITCKASQDVSIAVAWYQQKPGKAPKLLIYSASYRYTGVPDRFSGSGSGTDFTLTISSLQPEDFAVYYCQQHHHTPLTFGAGTKVEIK
notes: sacituzumab VL 92, 93 -> H
As to B3, the binding result in assay [2] is on record as “binds”.

B4: MYT12373 (antibody, V domains shown)
VH: QVQLQQSGSELKKPGASVKVSCKASGYTFTNYGMNWVKQAPGQGLKWMGWINTYTGEPTYTDDFKGRFAFSLDTSVSTAYLQISSLKADDTAVYFCARGGFGSSYWYFDVWGQGSLVTVSS
VL: DIQLTQSPSSLSASVGDRVSITCKASQDVHIAVAWYQQKPGKAPKLLIYSASYRYTGVPDRFSGSGSGTDFTLTISSLQPEDFAVYYCHQHYHTPLTFGAGTKVEIK
notes: sacituzumab VL 30, 89, 93 -> H
Consider B4, for which the binding result in assay [2] was “binds”.

B5: MYT12369 (antibody, V domains shown)
VH: QVQLQQSGSELKKPGASVKVSCKASGYTFTNYGMNWVKQAPGQGLKWMGWINTYTGEPTYTDDFKGRFAFSLDTSVSTAYLQISSLKADDTAVYFCARGGFGSSYWYFDVWGQGSLVTVSS
VL: DIQLTQSPSSLSASVGDRVSITCKASQDVHIAVAWYQQKPGKAPKLLIYSHSYRYTGVPDRFSGSGSGTDFTLTISSLQPEDFAVYYCHQHYITPLTFGAGTKVEIK
notes: sacituzumab VL 30, 51, 89 -> H
Consider B5, for which the binding result in assay [2] is recorded as “binds”.

B6: MYT12368 (antibody, V domains shown)
VH: QVQLQQSGSELKKPGASVKVSCKASGYTFTNYGMNWVKQAPGQGLKWMGWINTYTGEPTYTDDFKGRFAFSLDTSVSTAYLQISSLKADDTAVYFCARGGFGSSYWYFDVWGQGSLVTVSS
VL: DIQLTQSPSSLSASVGDRVSITCKASQDVHIAVAWYQQKPGKAPKLLIYSHSHRYTGVPDRFSGSGSGTDFTLTISSLQPEDFAVYYCQQHYITPLTFGAGTKVEIK
notes: sacituzumab VL 30, 51, 53 -> H
Consider B6, for which the binding result in assay [2] was “binds”.

B7: MYT11696 (antibody, V domains shown)
VH: QVQLVQSGAEVKKPGASVKVSCKASGYTFTTAGMQWVRQAPGQGLEWMGWINTHSGVPKYAEDFKGRVTISADTSTSTAYLQLSSLKSEDTAVYYCARSGFGSSYWYFDVWGQGTLVTVSS
VL: DIQMTQSPSSLSASVGDRVTITCKASQDVSTAVAWYQQKPGKAPKLLIYSASYRYTGVPSRFSGSGSGTDFTLTISSLQPEDFAVYYCQHHYITPLTFGQGTKLEIK
notes: IgG from supernatant; His at LCV position 90; also called datopotamab variant L3 02
As for B7, the binding result in assay [1] is reported as “binds”.

B8: MYT12370 (antibody, V domains shown)
VH: QVQLQQSGSELKKPGASVKVSCKASGYTFTNYGMNWVKQAPGQGLKWMGWINTYTGEPTYTDDFKGRFAFSLDTSVSTAYLQISSLKADDTAVYFCARGGFGSSYWYFDVWGQGSLVTVSS
VL: DIQLTQSPSSLSASVGDRVSITCKASQDVHIAVAWYQQKPGKAPKLLIYSHSYRYTGVPDRFSGSGSGTDFTLTISSLQPEDFAVYYCQQHYHTPLTFGAGTKVEIK
notes: sacituzumab VL 30, 51, 93 -> H
For the molecule B8, in assay [2], the binding result is given as “binds”.

B9: MYT11689 (antibody, V domains shown)
VH: QVQLVQSGAEVKKPGASVKVSCKASGYTFTTAGMQWVRQAPGQGLEWMGWINTHSGVPKYAEDFKGRVTISADTSTSTAYLQLSSLKSEDTAVYYCARSGFGSSYWYFDVWGQGTLVTVSS
VL: DIQMTQSPSSLSASVGDRVTITCKASQDVSTAVAWYQQKPGKAPKLLIYSHSYRYTGVPSRFSGSGSGTDFTLTISSLQPEDFAVYYCQQHYITPLTFGQGTKLEIK
notes: IgG from supernatant; His at LCV position 51; also called datopotamab variant L2 02
On to B9, for which, in assay [1], the binding result is given as “binds”.

B10: MYT11694 (antibody, V domains shown)
VH: QVQLVQSGAEVKKPGASVKVSCKASGYTFTTAGMQWVRQAPGQGLEWMGWINTHSGVPKYAEDFKGRVTISADTSTSTAYLQLSSLKSEDTAVYYCARSGFGSSYWYFDVWGQGTLVTVSS
VL: DIQMTQSPSSLSASVGDRVTITCKASQDVSTAVAWYQQKPGKAPKLLIYSASYRYHGVPSRFSGSGSGTDFTLTISSLQPEDFAVYYCQQHYITPLTFGQGTKLEIK
notes: IgG from supernatant; His at LCV position 56; also called datopotamab variant L2 07
For the molecule B10, the binding result in assay [1] is given as “binds”.

B11: MYT11695 (antibody, V domains shown)
VH: QVQLVQSGAEVKKPGASVKVSCKASGYTFTTAGMQWVRQAPGQGLEWMGWINTHSGVPKYAEDFKGRVTISADTSTSTAYLQLSSLKSEDTAVYYCARSGFGSSYWYFDVWGQGTLVTVSS
VL: DIQMTQSPSSLSASVGDRVTITCKASQDVSTAVAWYQQKPGKAPKLLIYSASYRYTGVPSRFSGSGSGTDFTLTISSLQPEDFAVYYCHQHYITPLTFGQGTKLEIK
notes: IgG from supernatant; His at LCV position 89; also called datopotamab variant L3 01
For B11, in assay [1], the binding result is reported as “binds”.

B12: MYT11683 (antibody, V domains shown)
VH: QVQLVQSGAEVKKPGASVKVSCKASGYTFTTAGMQWVRQAPGQGLEWMGWINTHSGVPKYAEDFKGRVTISADTSTSTAYLQLSSLKSEDTAVYYCARSGFGSSYWYFDVWGQGTLVTVSS
VL: DIQMTQSPSSLSASVGDRVTITCKASQDVHTAVAWYQQKPGKAPKLLIYSASYRYTGVPSRFSGSGSGTDFTLTISSLQPEDFAVYYCQQHYITPLTFGQGTKLEIK
notes: IgG from supernatant; His at LCV position 30; also called datopotamab variant L1 07
For B12, the binding result in assay [1] was “binds”.

B13: MYT11685 (antibody, V domains shown)
VH: QVQLVQSGAEVKKPGASVKVSCKASGYTFTTAGMQWVRQAPGQGLEWMGWINTHSGVPKYAEDFKGRVTISADTSTSTAYLQLSSLKSEDTAVYYCARSGFGSSYWYFDVWGQGTLVTVSS
VL: DIQMTQSPSSLSASVGDRVTITCKASQDVSTHVAWYQQKPGKAPKLLIYSASYRYTGVPSRFSGSGSGTDFTLTISSLQPEDFAVYYCQQHYITPLTFGQGTKLEIK
notes: IgG from supernatant; His at LCV position 32; also called datopotamab variant L1 09
For the molecule B13, in assay [1], the binding result is recorded as “no binding (tested: 50 nM)”.

B14: MYT11681 (antibody, V domains shown)
VH: QVQLVQSGAEVKKPGASVKVSCKASGYTFTTAGMQWVRQAPGQGLEWMGWINTHSGVPKYAEDFKGRVTISADTSTSTAYLQLSSLKSEDTAVYYCARSGFGSSYWYFDVWGQGTLVTVSS
VL: DIQMTQSPSSLSASVGDRVTITCKASQHVSTAVAWYQQKPGKAPKLLIYSASYRYTGVPSRFSGSGSGTDFTLTISSLQPEDFAVYYCQQHYITPLTFGQGTKLEIK
notes: IgG from supernatant; His at LCV position 28; also called datopotamab variant L1 05
As for B14, the binding result in assay [1] is “binds”.

B15: MYT11686 (antibody, V domains shown)
VH: QVQLVQSGAEVKKPGASVKVSCKASGYTFTTAGMQWVRQAPGQGLEWMGWINTHSGVPKYAEDFKGRVTISADTSTSTAYLQLSSLKSEDTAVYYCARSGFGSSYWYFDVWGQGTLVTVSS
VL: DIQMTQSPSSLSASVGDRVTITCKASQDVSTAHAWYQQKPGKAPKLLIYSASYRYTGVPSRFSGSGSGTDFTLTISSLQPEDFAVYYCQQHYITPLTFGQGTKLEIK
notes: IgG from supernatant; His at LCV position 33; also called datopotamab variant L1 10
For the molecule B15, the binding result in assay [1] is recorded as “binds”.

B16: MYT11693 (antibody, V domains shown)
VH: QVQLVQSGAEVKKPGASVKVSCKASGYTFTTAGMQWVRQAPGQGLEWMGWINTHSGVPKYAEDFKGRVTISADTSTSTAYLQLSSLKSEDTAVYYCARSGFGSSYWYFDVWGQGTLVTVSS
VL: DIQMTQSPSSLSASVGDRVTITCKASQDVSTAVAWYQQKPGKAPKLLIYSASYRHTGVPSRFSGSGSGTDFTLTISSLQPEDFAVYYCQQHYITPLTFGQGTKLEIK
notes: IgG from supernatant; His at LCV position 55; also called datopotamab variant L2 06
Turning to B16, the binding result in assay [1] is reported as “binds”.

B17: MYT11684 (antibody, V domains shown)
VH: QVQLVQSGAEVKKPGASVKVSCKASGYTFTTAGMQWVRQAPGQGLEWMGWINTHSGVPKYAEDFKGRVTISADTSTSTAYLQLSSLKSEDTAVYYCARSGFGSSYWYFDVWGQGTLVTVSS
VL: DIQMTQSPSSLSASVGDRVTITCKASQDVSHAVAWYQQKPGKAPKLLIYSASYRYTGVPSRFSGSGSGTDFTLTISSLQPEDFAVYYCQQHYITPLTFGQGTKLEIK
notes: IgG from supernatant; His at LCV position 31; also called datopotamab variant L1 08
In the case of B17, the binding result in assay [1] was “binds”.
